Assay results taken from US20180243435A1 (AbbVie / Abbott, published 2018).

B1: SC16.23 (antibody, V domains shown)
VH: QVTLKESGPGILQPSQTLSLTCSFSGFSLSTSNTGIGWIRQPSGTGLEWLAHIWWNDDKYYNPSLKSRLTISKETSNNQVFLKITNVDTADTASYFCVQIGRDYSNYAWYFDVWGAGTTVTVSS
VL: QIVLTQSPAIMSASPGEKVTLTCSASSSVSSRYLYWYQQKPGSSPKLWIYSTSNLASGVPARFSGSGSGTSYSLIISSMEAEDAASYFCHQWSNYPLTFGAGTKLELK
notes: murine hybridoma mAb
B2: SC16.65 (antibody, V domains shown)
VH: QVTLKESGPGILQPSQTLSLTCSFSGFSLSTSGMGVGWIRQPSGKGLEWLALIWWDDVKRYNPALKSRLTISKDASSSQVFLKIASVDTADTATYYCARIASYDYDVVYAMDYWGQGTSVSVSS
VL: QIVLTQSPALMSASPGEKVTMTCSVTSSVSYMYWYQQKPRSSPKPWIYLTSNLASGVPARFSGSGSGTSYSLTISSVEAEDAATYYCQQWRNNPFTFGSGTKVEIK
notes: murine hybridoma mAb
B3: SC16.34 (antibody, V domains shown)
VH: QIQLVQSGPELKRPGETVKISCKASGYTFTNYGMNWVKQAPGKGLKWMGWINTYTGDPTYADDFKGRFAFSLETSASTAYLQINNLKNEDTATYFCARIGGNSPSDYWGQGTSLTVSS
VL: SIVMTQTPKFLLVSAGDRVTITCKASQSVSNDVAWYQQKPGQSPKLLIYYASNRYSGVPDRFTGSGYGTDFTFTISTVQAEDLAVYFCQQDYSSPWTFGGGTKLEIK
notes: murine hybridoma mAb
B4: SC16.56 (antibody, V domains shown)
VH: QIQLVQSGPELKKPGETVKISCKASGYTFTNYGMNWVKQAPGKGLKWMAWINTYTGEPTYADDFKGRFAFSLETSASTASLQIINLKNEDTATYFCARIGDSSPSDYWGQGTTLTVSS
VL: SIVMTQTPKFLLVSAGDRVTITCKASQSVSNDVVWYQQKPGQSPKLLIYYASNRYTGVPDRFAGSGYGTDFSFTISTVQAEDLAVYFCQQDYTSPWTFGGGTKLEIR
notes: murine hybridoma mAb

Legend:
[1] = molecular target: T1, DLL3 extracellular domain (amino acids 27-466) displayed on yeast (human, UniProt Q9NYJ7 27-466); test: fine epitope mapping (phage display peptide library or yeast display of DLL3 ECD mutants)
T1 construct: also called DLL3 ECD; wild type DLL3 ECD
T1 sequence: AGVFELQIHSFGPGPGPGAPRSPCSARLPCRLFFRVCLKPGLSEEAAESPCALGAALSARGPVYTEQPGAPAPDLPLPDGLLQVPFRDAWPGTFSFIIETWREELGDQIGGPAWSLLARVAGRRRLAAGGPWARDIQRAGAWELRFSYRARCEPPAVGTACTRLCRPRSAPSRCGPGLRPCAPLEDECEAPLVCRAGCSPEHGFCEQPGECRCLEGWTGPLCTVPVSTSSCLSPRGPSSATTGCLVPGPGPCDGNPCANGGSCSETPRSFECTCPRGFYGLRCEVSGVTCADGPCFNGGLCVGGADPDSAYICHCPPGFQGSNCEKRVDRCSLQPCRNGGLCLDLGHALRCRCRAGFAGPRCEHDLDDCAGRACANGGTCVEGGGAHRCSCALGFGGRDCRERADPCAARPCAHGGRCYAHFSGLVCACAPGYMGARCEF

human DLL3-His protein = molecular target: T2, human DLL3-His protein (human, UniProt Q9NYJ7 27-492); test: IHC competition: antibody mixed with a 5x molar ratio excess of hDLL3-His before staining FFPE sections
T2 construct: Purified from supernatants of CHO-S cells; also called hDLL3-His; recombinant DLL3-His; not shown: His tag
T2 sequence: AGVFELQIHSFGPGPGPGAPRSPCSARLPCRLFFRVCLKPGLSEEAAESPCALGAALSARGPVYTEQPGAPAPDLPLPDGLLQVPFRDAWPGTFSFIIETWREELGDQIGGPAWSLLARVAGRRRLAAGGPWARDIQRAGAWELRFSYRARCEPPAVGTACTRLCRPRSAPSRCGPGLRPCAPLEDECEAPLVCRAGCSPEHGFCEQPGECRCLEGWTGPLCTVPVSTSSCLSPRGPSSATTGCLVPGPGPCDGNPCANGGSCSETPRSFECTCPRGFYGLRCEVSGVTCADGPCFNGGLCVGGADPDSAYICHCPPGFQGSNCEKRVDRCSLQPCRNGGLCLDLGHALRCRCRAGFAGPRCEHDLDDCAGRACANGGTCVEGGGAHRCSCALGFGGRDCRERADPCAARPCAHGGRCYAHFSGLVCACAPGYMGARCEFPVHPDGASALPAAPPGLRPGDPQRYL
Method: (§1) In order to identify an IHC-compatible anti-DLL3 antibody, IHC was performed on HEK293T parental cell pellets or DLL3-expressing HEK293T cell pellets using numerous anti-DLL3 antibodies of the invention. Several murine anti-DLL3 antibodies (including SC16.65) were able to specifically detect DLL3-overexpressing HEK293T cell pellets more effectively than other anti-DLL3 antibodies of the invention that were tested (data not shown). The ability of these antibodies to specifically detect DLL3 was confirmed by a competition experiment in which the relevant anti-DLL3 antibody was mixed with a 5× molar ratio excess of hDLL3-His protein and then incubated with DLL3-expressing HEK293T formalin fixed and paraffin embedded (FFPE) sections.

[2] = molecular target: T3, DLL3 on DLL3-expressing HEK293T cells (human, UniProt Q9NYJ7 27-618); test: immunohistochemistry on HEK293T parental vs DLL3-expressing cell pellets
T3 construct: Cells were formalin fixed and paraffin embedded for IHC; also called DLL3-overexpressing HEK293T cell pellets; DLL3-expressing HEK293T FFPE sections
T3 sequence: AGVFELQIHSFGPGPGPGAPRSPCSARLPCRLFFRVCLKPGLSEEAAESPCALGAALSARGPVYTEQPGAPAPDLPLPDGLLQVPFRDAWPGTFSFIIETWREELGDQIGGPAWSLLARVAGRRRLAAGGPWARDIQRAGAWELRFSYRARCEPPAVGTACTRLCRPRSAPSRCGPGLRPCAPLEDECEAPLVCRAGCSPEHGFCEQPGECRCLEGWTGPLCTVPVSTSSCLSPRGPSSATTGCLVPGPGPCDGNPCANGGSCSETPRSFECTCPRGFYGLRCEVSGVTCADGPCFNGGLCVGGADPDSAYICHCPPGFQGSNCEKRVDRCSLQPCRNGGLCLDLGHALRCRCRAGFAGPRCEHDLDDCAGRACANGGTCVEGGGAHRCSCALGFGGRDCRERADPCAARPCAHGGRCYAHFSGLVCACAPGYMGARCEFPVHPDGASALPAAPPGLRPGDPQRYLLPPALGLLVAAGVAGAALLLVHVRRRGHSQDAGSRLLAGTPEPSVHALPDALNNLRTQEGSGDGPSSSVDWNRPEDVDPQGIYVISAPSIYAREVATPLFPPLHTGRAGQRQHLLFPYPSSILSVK
Method: as §1

| Binder | binding result [1] | binding result (human DLL3-His protein) | binding result [2] |
| --- | --- | --- | --- |
| B1 | binds | – | – |
| B2 | – | binds | binds |
| B3 | binds | – | – |
| B4 | binds | – | – |
